Target: pooled human IgG

Row | Protein | Enzyme Activity Endpoint Assay: Fab′2 | Enzyme Activity Endpoint Assay: Fc | Enzyme Activity Endpoint Assay: IgG | Enzyme Activity Endpoint Assay: scIgG | Enzyme Activity Endpoint Assay (purified): Fab'2 | Enzyme Activity Endpoint Assay (purified): Fc | Enzyme Activity Endpoint Assay (purified): IgG | Enzyme Activity Endpoint Assay (purified): scIgG
1 | PRT-10 (protein) MANQEIRYSEVTPYTVTSVWTKGVTPPANFTQGEDVFHAPYVANQGWYDITKTFNGKDDLLCGAATAGNMLHWWFDQNKEQIERYLKEHPEKQKINFNGEQMFDVKEAIDTKDSQLDSELFEYFKEKAFPYLSTKHLGVFPDHVIDMFINGYRLSLTNHGPTPVKEGSKDPRGGIFDAVFTRGDQSKLLTSRHDFKEKTLKEISDLIKKELTEGKALALSHTYANVRINHVINLWGADFDSEGNLEAIYVTDSDSNASIGMKKYFVGVNSAGKVAISAKEIEDDNIGAQVLGLFTLSTGQDIWNQTN | 2 ng/µL | 56 ng/µL | 32 ng/µL | 58 ng/µL | – | – | – | –
2 | PRT-121 (protein) MRNATEAYNEDTPKQITSVWTKGVTPPTPEQFRKYNEDVLHAPYIANQGWYDITKTFNGKDDLLCGAATAGNMLHWWFDQNKTEIEAYLSKYPEKQKIIFNNQELFDLRAAIDTKDSQTNSALFNYFRDKAFPNLSARQLGVMPDLVLDMFINGYYLNVTKTQSTDVNRPYQTKDKRGGIFDAVFTRGDQTTLLTSRHDLKNKTLNEISDLIKQELTEGKALALSHTYANVSISHVINLWGADFNAEGNLEAIYVTDSDANASIGMKKYFVGVNAAGKVAISAKKIEGENIGAQVLGLFTLSTGKDIWEKLS | – | – | – | – | 447 ng/µL | 174 ng/µL | 0 ng/µL | 0 ng/µL
3 | PRT-120 (protein) MRNATEAYNEETPKQITSVWTKGVTPLTPEDFRYNNEDVFHAPYLANQGWYDITKTFNGKDNLLCGAATAGNMLHWWFDQNKEEIEAYLKKHPEKQKIIFNNQELFDLKAAIDTKDSQTNSQLFNYFKDKAFPNLSARQLGVMPDLVLDMFINGYYLNVNKTQSTDVNRPYQDKDKRGGIFDAVFTRGDQTKLLTERHDLKNKGLNDISTLIKQELTEGKALALSHTYANVSINHVINLWGADFDAEGNLEAIYVTDSDSNESIGMKKYFVGINAAGKVAISAKKIEDENIGAQVLGLFTLSSGKDIWQQLS | – | – | – | – | 92 ng/µL | 113 ng/µL | 28 ng/µL | 153 ng/µL
4 | PRT-123 (protein) MRNATEAYNKESPHTITSVWTKGVTPPTPEDFRYNNEDVLHAPYVANQGWYDITKTFDGKDNLLCGAATAGNMLHWWFDQNKEEIERYLKKHPEKQKIIFNNQELFDVKAAIDTKDSQTNSKLFNYFRDKAFPNLSARQLGVMPDLVLDMFINGYYLNLGKTQSTDVNRPYQDKDKRGGIFDAVFTRGDQTTLLTARHDLKNKGLNEISDLIKQELTEGKALALSHTYANVRINHVINLWGADFDAEGNLIAIYVTDSDANASIGMKKYFVGVNANGKVAISAKKIEGDNIGAQVLGLFTLSTGQDIWQKLS | – | – | – | – | 468 ng/µL | 187 ng/µL | 0 ng/µL | 0 ng/µL
5 | PRT-122 (protein) MRNATEAYAKEVPKKITSVWTKGVTPLTPEQFIYQNEDVFHAPYLAHQGWYDITKTFNGKDNLLCGAATAGNMLHWWFDQNKEEIERYLSKHPEKQKIIFNNQELFDLKAAIDTKDSQTNSALFNYFRDKAFPNLSARQLGVMPDLVLDMFINGYYLNVTKTQSTDVNRPYQTKDKRGGIFDAVFTRGDQTKLLTERHDLKNKTLEEISQLIKQELTEGKALGLSHTYANVRISHVINLWGADFDAEGNLEAIYVTDSDSNASIGMKKYFVGVNASGKVAISAKKIEDDNIGAQVLGLFTLSSGKDIWEKLS | – | – | – | – | 565 ng/µL | 194 ng/µL | 138 ng/µL | 0 ng/µL

From US20250027068
